Laboratory results from article PMC3258177 (Molecular Biology of the Cell, 2012).

T1: Recombinant Sec6 (1–805) (yeast, UniProt P32844 1-805)
T1 sequence: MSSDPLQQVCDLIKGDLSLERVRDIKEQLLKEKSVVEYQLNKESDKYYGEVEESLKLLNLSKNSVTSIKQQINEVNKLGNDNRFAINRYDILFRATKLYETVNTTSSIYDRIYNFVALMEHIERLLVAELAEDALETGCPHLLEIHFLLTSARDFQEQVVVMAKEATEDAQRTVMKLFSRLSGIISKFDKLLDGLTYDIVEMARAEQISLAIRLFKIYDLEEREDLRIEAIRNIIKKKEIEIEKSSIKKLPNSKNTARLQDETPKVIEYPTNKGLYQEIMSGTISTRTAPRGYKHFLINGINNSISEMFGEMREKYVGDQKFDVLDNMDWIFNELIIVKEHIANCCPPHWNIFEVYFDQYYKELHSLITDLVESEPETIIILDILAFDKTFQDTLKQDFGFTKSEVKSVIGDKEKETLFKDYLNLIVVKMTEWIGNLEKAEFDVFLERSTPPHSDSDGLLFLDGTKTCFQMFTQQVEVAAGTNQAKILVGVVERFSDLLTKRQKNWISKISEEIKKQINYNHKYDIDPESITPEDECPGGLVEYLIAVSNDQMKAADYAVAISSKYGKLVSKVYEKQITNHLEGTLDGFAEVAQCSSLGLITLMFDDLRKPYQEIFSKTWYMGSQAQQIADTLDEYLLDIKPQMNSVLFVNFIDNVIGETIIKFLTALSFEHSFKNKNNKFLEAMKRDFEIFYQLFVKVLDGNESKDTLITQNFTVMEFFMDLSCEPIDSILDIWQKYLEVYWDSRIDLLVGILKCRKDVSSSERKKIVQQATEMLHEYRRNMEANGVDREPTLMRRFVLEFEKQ

B1: MBP-Sec9CT (domain or fragment)
chain: ARQQQEEDEAVDEIKQEIKFTKQSSVASTRNTLKMAQDAERAGMNTLGMLGHQSEQLNNVEGNLDLMKVQNKVADEKVAELKKLNRSILAVHVSNPFNSKRRRREREEQLKNRKIEEKLMREQTSQQLSQSTQRIEGAMNANNNISEVRERYQRKNVLEKAKRYQFENDEEDDEMELEIDRNLDQIQQVSNRLKKMALTTGKELDSQQKRLNNIEESTDDLDINLHMNTNRLAGIR
B2: Sec1-V5-His6 (natural protein)
chain: MSDLIELQRNYLIGVLNQIETKNNLKFLIIDKTVETILSYLFLTPQELLNNVTSVDLIDSPTRKGQSSIEAIYILEPTKYNINCIDADFMVRPPKYRRCHIRFLPGLTNPIFQFFQSKRYIAQNLESFKPIELGFFVKESQFFETLQMEHSLQVFFNNNCKALIPTNVRKIVGSLVSLCVITGEYPIVRYSVSNPVEEEDARNGNAVVNANSLTRSIANAFQIAIDTYARNNPDFPPQNTERPRSILIITDRTLDPFAPILHDFSYQAMAYDLVANVDTQKDIYHYSAENEAGEQEEKVSKLVDLYDPDWIDLKHQHIMDANEYIQGRIKELIAKNPLLVDRSNVKNTTDLLSVVAHLKDFDEERRRLILHKTLVDECLGENAERKLADISAIEQNLSGFGMDFSGEKIKHIIDDLLPALAMKEPTILDKLRYIIAYALFRGGIIELDFIKLLNFIGVTHEHENFQQYLKIFRNYDLIDFKLIKDKPKDKPFQKEWFHDTLVNDPNIYHTSRFVPAVGNILSKVIANPLLLSEQYFPYLKDKPIELLNEEEFQAGLANTSANSSSSLRNPRHKAAWTTKSSNIKKNIPRQRFFYYVIGGISIPEIKAAYDQSNLKNRDIFIGSDEILTPTKFLDEVERLQNPREFFKFKEDQRQQVNPPDFLLREMKPVAQPVSHVHLKSQDNSPKSGTSSPKAAGSLKSEPPEKEKKRSKFSRFLKRKSHHDK
B3: Sso1, cytoplasmic region (domain or fragment)
chain: MSYNNPYQLETPFEESYELDEGSSAIGAEGHDFVGFMNKISQINRDLDKYDHTINQVDSLHKRLLTEVNEEQASHLRHSLDNFVAQATDLQFKLKNEIKSAQRDGIHDTNKQAQAENSRQRFLKLIQDYRIVDSNYKEENKEQAKRQYMIIQPEATEDEVEAAISDVGGQQIFSQALLNANRRGEAKTALAEVQARHQELLKLEKSMAELTQLFNDMEELVIEQQENVDVIDKNVEDAQLDVEQGVGHTDKAVKSARKARKNKIR
B4: Sec9CT (416–651) (domain or fragment)
chain: B1 chain

How the values were obtained:
Recombinant Sec6 (1–805) [1] = molecular target: T1, Recombinant Sec6 (1–805); test: […]
Recombinant Sec6 (1–805) [2] = molecular target: T1, Recombinant Sec6 (1–805); test: pull-down
Sec1-V5-His6 = molecular target: B2; test: pull-down
Recombinant Sec6 (1–805) [3] = molecular target: T1, Recombinant Sec6 (1–805); test: SEC

## B1
Recombinant Sec6 (1–805) [1]
  binding result: binds

## B2
Recombinant Sec6 (1–805) [2]
  Kd: ~1700 nM

## B3
Sec1-V5-His6
  Kd: > 10 µM

## B4
Recombinant Sec6 (1–805) [3]
  binding result: binds
